Here are results for one molecule from patent US7041801 (VANDERBILT UNIVERSITY, dated 2006).

For the experiment, the target named is T1, integrin αVβ3 expressed by human umbilical vein endothelial cells (HUVEC) (human, UniProt P06756 31-1048; P05106 27-788).
T1 construct: whole, on cells; also called integrin alpha V beta 3
Put plainly: binding to HUVEC; the receptor on HUVEC was identified as αVβ3.

T1 sequence (P06756 31-1048, chain 1 of 2): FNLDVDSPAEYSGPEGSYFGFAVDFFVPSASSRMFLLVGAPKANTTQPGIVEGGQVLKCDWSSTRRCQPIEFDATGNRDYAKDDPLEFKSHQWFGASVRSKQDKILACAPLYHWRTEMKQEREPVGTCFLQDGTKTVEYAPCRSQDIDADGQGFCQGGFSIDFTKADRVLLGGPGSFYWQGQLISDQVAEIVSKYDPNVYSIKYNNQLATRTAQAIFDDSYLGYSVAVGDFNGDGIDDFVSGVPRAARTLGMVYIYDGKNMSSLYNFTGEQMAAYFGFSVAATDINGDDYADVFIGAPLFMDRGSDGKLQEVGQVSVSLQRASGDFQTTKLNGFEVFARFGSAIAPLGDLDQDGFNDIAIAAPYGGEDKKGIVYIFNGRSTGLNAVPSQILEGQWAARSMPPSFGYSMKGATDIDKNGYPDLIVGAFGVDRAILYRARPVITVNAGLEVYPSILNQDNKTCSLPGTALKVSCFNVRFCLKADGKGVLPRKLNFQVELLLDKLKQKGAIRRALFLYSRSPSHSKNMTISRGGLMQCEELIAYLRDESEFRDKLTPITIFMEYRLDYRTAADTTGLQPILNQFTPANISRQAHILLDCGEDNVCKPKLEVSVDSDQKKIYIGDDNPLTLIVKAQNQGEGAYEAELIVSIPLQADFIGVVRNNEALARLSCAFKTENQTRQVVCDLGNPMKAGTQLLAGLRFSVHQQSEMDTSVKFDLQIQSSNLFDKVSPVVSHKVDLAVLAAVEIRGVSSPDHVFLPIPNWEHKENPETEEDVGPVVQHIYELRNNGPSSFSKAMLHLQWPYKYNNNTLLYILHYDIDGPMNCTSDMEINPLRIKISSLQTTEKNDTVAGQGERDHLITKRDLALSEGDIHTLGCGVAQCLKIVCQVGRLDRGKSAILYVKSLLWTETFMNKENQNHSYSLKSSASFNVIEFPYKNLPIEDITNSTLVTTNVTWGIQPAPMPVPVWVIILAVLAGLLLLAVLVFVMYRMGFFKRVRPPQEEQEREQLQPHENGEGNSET
T1 sequence (P05106 27-788, chain 2 of 2): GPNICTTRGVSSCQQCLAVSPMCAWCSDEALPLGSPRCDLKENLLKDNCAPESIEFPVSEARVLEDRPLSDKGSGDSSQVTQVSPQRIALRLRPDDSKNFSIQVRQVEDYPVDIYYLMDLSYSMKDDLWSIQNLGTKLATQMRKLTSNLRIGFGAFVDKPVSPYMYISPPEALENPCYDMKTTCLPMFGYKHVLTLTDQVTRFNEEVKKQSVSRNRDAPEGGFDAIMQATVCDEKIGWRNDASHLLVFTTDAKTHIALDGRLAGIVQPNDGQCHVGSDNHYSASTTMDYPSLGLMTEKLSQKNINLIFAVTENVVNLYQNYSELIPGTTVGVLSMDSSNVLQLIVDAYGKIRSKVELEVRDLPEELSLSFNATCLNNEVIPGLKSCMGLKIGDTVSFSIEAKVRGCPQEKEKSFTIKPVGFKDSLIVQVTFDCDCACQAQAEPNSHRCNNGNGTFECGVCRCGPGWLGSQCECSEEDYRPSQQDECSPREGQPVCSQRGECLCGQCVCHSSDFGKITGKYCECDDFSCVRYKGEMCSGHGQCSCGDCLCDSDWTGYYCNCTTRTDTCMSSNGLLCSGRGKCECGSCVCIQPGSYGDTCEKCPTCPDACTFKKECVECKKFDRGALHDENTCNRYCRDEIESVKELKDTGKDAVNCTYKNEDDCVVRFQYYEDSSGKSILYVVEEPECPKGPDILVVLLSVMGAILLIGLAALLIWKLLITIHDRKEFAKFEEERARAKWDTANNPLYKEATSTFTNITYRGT
Description: Human umbilical vein endothelial cells (HUVEC) (Clonetics Inc., San Diego, Calif.) were grown as indicated by the supplier in endothelial growth media supplemented with 10 ng/ml human recombinant epidermal growth factor, 1 μg/ml hydrocortisone, 50 μg/ml gentamicin, 12 μg/ml bovine brain extract and 2% FBS. Cells were grown at: 37° C./5% CO_2 to 70% confluency before use in the binding assay. […] The plates were washed with PBS and blocked for 30 min with a solution of heat treated (95° C. for 5 min) PBS containing 3% BSA. HUVEC cells were harvested by trypsinization and resuspended in an adhesion buffer (Hanks balanced salt solution pH 7.4 containing 10 mM Hepes, 2.2 mM MgCl_2, 0.2 mM MnCl_2 and 1% BSA). Cells (10^4/100 μl) were added to each well in the presence or absence of the indicated antagonists or controls at varying concentrations. […] Cells were incubated at 37° C./5% CO_2 for 60–90 min and wells were washed until no cells remained in the BSA control. To count remaining cells, 100 μl of endothelial media was added to each well. Cells number was determined by the Promega Cell titer AQ as indicated by the manufacturer.

B1: murine Del-1 (major form) expressed by del-1 transfected yolk sac YS-B cells (ligand)
chain: DICNPNPCENGGICLSGLADDSFSCECPEGFAGPNCSSVVEVASDEEKPTSAGPCIPNPCHNGGTCEISEAYRGDTFIGYVCKCPRGFNGIHCQHNINECEAEPCRNGGICTDLVANYSCECPGEFMGRNCQYKCSGHLGIEGGIISNQQITASSNHRALFGLQKWYPYYARLNKKGLINAWTAAENDRWPWIQINLQRKMRVTGVITQGAKRIGSPEYIKSYKIAYSNDGKTWAMYKVKGTNEEMVFRGNVDNNTPYANSFTPPIKAQYVRLYPQICRRHCTLRMELLGCELSGCSEPLGMKSGHIQDYQITASSVFRTLNMDMFTWEPRKARLDKQGKVNAWTSGHNDQSQWLQVDLLVPTKVTGIITQGAKDFGHVQFVGSYKLAYSNDGEHWMVHQDEKQRKDKVFQGNFDNDTHRKNVIDPPIYARFIRILPWSWYGRITLRSELLGCAEEE
notes: The protein is found in cell lysates, on the cell membrane and in the extracellular matrix of the transfectants (52 kDa band); also called del-1 transfectants; full-length Del-1 protein
With B1, the binding result is on record as “binds”.
